Paper PMC7438487, “Structural studies reveal flexible roof of active site responsible for ω-transaminase CrmG overcoming by-product inhibition” (Communications Biology, 2020)

Molecular target: ω-transaminase CrmG from Actinoalloteichus cyanogriseus WH1-2216-6 (Actinoalloteichus cyanogriseus WH1-2216-6)
Experiment: dynamic light scattering; apo CrmG at 4.8 mg/mL in 50 mM Tris buffer pH 7.5, 20 °C, DynaPro Titan

In the case of “ω-transaminase CrmG from Actinoalloteichus cyanogriseus WH1-2216-6 (enzyme)”, the stoichiometry N is reported as 2.
